Patent US20250043302A1, “MUTATED HYDROXYPHENYLPYRUVATE DIOXYGENASE POLYPEPTIDE, AND CODING GENE AND USE THEREOF” (BEIJING DABEINONG BIOTECHNOLOGY CO., LTD., priority 2021, published 2025)

Tests used:
Assay type in all cases: in vivo
[1] = system: Arabidopsis thaliana T1 plants; test: Topramezone tolerance of transgenic Arabidopsis thaliana T1 plants (spray, bleached leaf area grade, damage score); details: 7 DAT, Table 4; for Classification and statistics of the grade of pesticide damage: Grade 0 / Classification and statistics of the grade of pesticide damage: Grade 1 / Classification and statistics of the grade of pesticide damage: Grade 2 / Classification and statistics of the grade of pesticide damage: Grade 3: number of plants; for Scores: pesticide damage score 0-100
How it was run: (§1)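 Damage graded 0–3 from the proportion of bleached leaf area 7 days after spraying. Plants were glufosinate-selected T1 lines, 18 days after sowing, plus vector and wild-type controls. Rates: mesotrione 52.5–420, isoxaflutole 35–280, topramezone 25–200 g ai/ha, with water (0×).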

[2] = system: Arabidopsis thaliana T1 plants; test: Isoxaflutole tolerance of transgenic Arabidopsis thaliana T1 plants (spray, bleached leaf area grade, damage score); parameters: Scores (pesticide damage): scale not given here; details: spray, Arabidopsis thaliana T1 plants; for Classification and statistics of the grade of pesticide damage: Grade 0 (number of plants) / Classification and statistics of the grade of pesticide damage: Grade 1 (number of plants) / Classification and statistics of the grade of pesticide damage: Grade 2 (number of plants) / Classification and statistics of the grade of pesticide damage: Grade 3 (number of plants): 16 plants
How it was run: as §1

[3] = system: Arabidopsis thaliana T1 plants; test: Mesotrione tolerance of transgenic Arabidopsis thaliana T1 plants (spray, bleached leaf area grade, damage score); parameters: Scores: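 damage score 0-100 computed as Σ(N×S)/(T×M)×100 over grades 0-3 with higher meaning more damage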; details: Arabidopsis thaliana T1 plants; for Grade 0 (classification and statistics of the grade of pesticide damage; number of plants) / Grade 1 (classification and statistics of the grade of pesticide damage; number of plants) / Grade 2 (classification and statistics of the grade of pesticide damage; number of plants) / Grade 3 (classification and statistics of the grade of pesticide damage; number of plants): 16 plants
How it was run: as §1

[4] = isoxaflutole 35 g ai/ha (0.5x field concentration)
[5] = isoxaflutole 70 g ai/ha (1x field concentration)

Molecule | Classification and statistics of the grade of pesticide damage: Grade 0 ([1]; topramezone 25 g ai/ha (1×)) | Classification and statistics of the grade of pesticide damage: Grade 1 ([1]; topramezone 25 g ai/ha (1×)) | Classification and statistics of the grade of pesticide damage: Grade 2 ([1]; topramezone 25 g ai/ha (1×)) | Classification and statistics of the grade of pesticide damage: Grade 3 ([1]; topramezone 25 g ai/ha (1×)) | Classification and statistics of the grade of pesticide damage: Grade 0 ([1]; topramezone 100 g ai/ha (4×)) | Classification and statistics of the grade of pesticide damage: Grade 1 ([1]; topramezone 100 g ai/ha (4×)) | Classification and statistics of the grade of pesticide damage: Grade 2 ([1]; topramezone 100 g ai/ha (4×)) | Classification and statistics of the grade of pesticide damage: Grade 3 ([1]; topramezone 100 g ai/ha (4×)) | Scores ([1]; topramezone 25 g ai/ha (1×)) | Scores ([1]; topramezone 100 g ai/ha (4×)) | Resistance evaluation ([1]; topramezone 25 g ai/ha (1×)) | Resistance evaluation ([1]; topramezone 100 g ai/ha (4×)) | Resistance evaluation [2, 4] | Scores (pesticide damage) [2, 4] | Classification and statistics of the grade of pesticide damage: Grade 0 (number of plants) [2, 4] | Classification and statistics of the grade of pesticide damage: Grade 1 (number of plants) [2, 4] | Classification and statistics of the grade of pesticide damage: Grade 2 (number of plants) [2, 4] | Classification and statistics of the grade of pesticide damage: Grade 3 (number of plants) [2, 4] | Resistance evaluation [2, 5] | Scores (pesticide damage) [2, 5] | other results
NtHPPDm-F372A-02: nucleotide sequence encoding Nicotiana tabacum HPPD with F372A; vector DBN11751 (nucleic acid, NtHPPDm-F372A-02 Nucleotide Sequence, vector DBN11751) DNA: ATGGGGAAGCTGGAAACCGTCACTACCACCTCGGCGGCGGCTGCTGATGATTCATCGGAATTAACAACCAACTTCAAGTTGGTTGGTTTCAAAAATTTCATCAGAACAAACCCAAGGTCTGATTTCTTCTCCGTCAAGAGCTTCCACCACATTGAATTCTGGTGCGGTGACGCAACTAACACAGCGCGCCGCTTCTCATGGAGCCTAGGGATGCCAATTGCAGCTAAGAGTGATCTTTCAACAGGAAACAGCGTGCACGCCTCCTACCTCCTCCGGCCCGTAAGCGGTTCTTTACAGTTCCTGTTTACAGCACCATATTCACCTTCTATTTCGACTCCTAGTTCAGCTGCAATCCCATCTTTTTCCACATCTACACATAGGTCTTTCACTACAACACATGGACTGGGTGTTCGTGCCGTCGCCCTCGAGGTGGAGAATGCTTATACTGCCTTCAGTGCTTCTGTCTCCAGAGGCGCCAAGCCAATGTTTGAACCTGTGACAATTGATGAACAAGTAGCAATGGCTGAGGTTCATTTGTACGGCGATGTTGTGCTGCGATTTGTTTCTTATCTCAAGGACGCCGACAACCTGGTCTTCCTGCCGGGGTTTGAGGCCATGGATGAAACTGCTAGTTACAAAGAACTTGATTATGGAATACGGCGTTTGGATCATGCTGTGGGCAATGTTCCAGAACTCGGCCCGGTAGTTGATTACATCAAGAGGTTTACTGGATTTCATGAATTTGCAGAGTTTACCGCTGAAGATGTGGGAACTGCGGAAAGTGGGCTAAACTCCATGGTTCTTGCGAACAATGATGAGACTGTGCTCCTCCCTCTGAATGAGCCTGTTTATGGCACCAAAAGAAAATCTCAGATACAAACATATCTTGAGCATAATGAAGGAGCTGGGGTGCAGCACCTTGCTCTTGTTACTGAAGACATCTTTAAGACTTTGACAGAGATGAGGAAGAGAAGTGGAGTTGGAGGTTTTGAGTTCATGCCTTCCCCCCCGCCGACCTACTACAAGAATTTGAAGAACAGGGCTGGTGACGTCCTCTCAGACGAGCAGATTTTGGCTTGTGAGGAGCTTGGCATCTTGGTAGACCGGGACGACCAGGGGACGCTTCTCCAAATTGCCACAAAACCCGTCGGGGACCGCCCCACCATATTTATTGAGATCATCCAGAGGATAGGCTGCATGCTTAAAGATGGAAAAGGTCAAGTGTACCAGAAGGGTGGTTGTGGTGGGTTTGGCAAAGGAAATTTTTCTGAGCTGTTCAGAAGCATAGAAGAATATGAGAAGACACTGGAAGCAAAACAAGCAAATCAAGTTGCGGCCGCGTGA | 0 | 6 | 10 | 0 | 0 | 0 | 0 | 16 | 54 | 100 | poorly | non-resistant (non-resistant plants (scores 68-100)) | Poorly | 54 | 0 | 6 | 10 | 0 | Non-resistant | 100 | Classification and statistics of the grade of pesticide damage: Grade 0 (number of plants) [2, 5]: 0; Classification and statistics of the grade of pesticide damage: Grade 1 (number of plants) [2, 5]: 0; Classification and statistics of the grade of pesticide damage: Grade 2 (number of plants) [2, 5]: 0; Classification and statistics of the grade of pesticide damage: Grade 3 (number of plants) [2, 5]: 16; Resistance evaluation ([3]; mesotrione 52.5 g ai/ha): Poorly resistant; Scores ([3]; mesotrione 52.5 g ai/ha): 65; Grade 0 (classification and statistics of the grade of pesticide damage; number of plants) ([3]; mesotrione 52.5 g ai/ha): 0; Grade 1 (classification and statistics of the grade of pesticide damage; number of plants) ([3]; mesotrione 52.5 g ai/ha): 2; Grade 2 (classification and statistics of the grade of pesticide damage; number of plants) ([3]; mesotrione 52.5 g ai/ha): 13; Grade 3 (classification and statistics of the grade of pesticide damage; number of plants) ([3]; mesotrione 52.5 g ai/ha): 1; Resistance evaluation ([3]; mesotrione 105 g ai/ha): Non-resistant; Scores ([3]; mesotrione 105 g ai/ha): 100; Grade 0 (classification and statistics of the grade of pesticide damage; number of plants) ([3]; mesotrione 105 g ai/ha): 0; Grade 1 (classification and statistics of the grade of pesticide damage; number of plants) ([3]; mesotrione 105 g ai/ha): 0; Grade 2 (classification and statistics of the grade of pesticide damage; number of plants) ([3]; mesotrione 105 g ai/ha): 0; Grade 3 (classification and statistics of the grade of pesticide damage; number of plants) ([3]; mesotrione 105 g ai/ha): 16
NtHPPDm-F383W-02: nucleotide sequence encoding Nicotiana tabacum HPPD with F383W; vector DBN11752 (nucleic acid, NtHPPDm-F383W-02 Nucleotide Sequence, vector DBN11752) DNA: ATGGGGAAGCTGGAAACCGTCACTACCACCTCGGCGGCGGCTGCTGATGATTCATCGGAATTAACAACCAACTTCAAGTTGGTTGGTTTCAAAAATTTCATCAGAACAAACCCAAGGTCTGATTTCTTCTCCGTCAAGAGCTTCCACCACATTGAATTCTGGTGCGGTGACGCAACTAACACAGCGCGCCGCTTCTCATGGAGCCTAGGGATGCCAATTGCAGCTAAGAGTGATCTTTCAACAGGAAACAGCGTGCACGCCTCCTACCTCCTCCGGCCCGTAAGCGGTTCTTTACAGTTCCTGTTTACAGCACCATATTCACCTTCTATTTCGACTCCTAGTTCAGCTGCAATCCCATCTTTTTCCACATCTACACATAGGTCTTTCACTACAACACATGGACTGGGTGTTCGTGCCGTCGCCCTCGAGGTGGAGAATGCTTATACTGCCTTCAGTGCTTCTGTCTCCAGAGGCGCCAAGCCAATGTTTGAACCTGTGACAATTGATGAACAAGTAGCAATGGCTGAGGTTCATTTGTACGGCGATGTTGTGCTGCGATTTGTTTCTTATCTCAAGGACGCCGACAACCTGGTCTTCCTGCCGGGGTTTGAGGCCATGGATGAAACTGCTAGTTACAAAGAACTTGATTATGGAATACGGCGTTTGGATCATGCTGTGGGCAATGTTCCAGAACTCGGCCCGGTAGTTGATTACATCAAGAGGTTTACTGGATTTCATGAATTTGCAGAGTTTACCGCTGAAGATGTGGGAACTGCGGAAAGTGGGCTAAACTCCATGGTTCTTGCGAACAATGATGAGACTGTGCTCCTCCCTCTGAATGAGCCTGTTTATGGCACCAAAAGAAAATCTCAGATACAAACATATCTTGAGCATAATGAAGGAGCTGGGGTGCAGCACCTTGCTCTTGTTACTGAAGACATCTTTAAGACTTTGACAGAGATGAGGAAGAGAAGTGGAGTTGGAGGTTTTGAGTTCATGCCTTCCCCCCCGCCGACCTACTACAAGAATTTGAAGAACAGGGCTGGTGACGTCCTCTCAGACGAGCAGATTTTGGCTTGTGAGGAGCTTGGCATCTTGGTAGACCGGGACGACCAGGGGACGCTTCTCCAAATTTTCACAAAACCCGTCGGGGACCGCCCCACCATATGGATTGAGATCATCCAGAGGATAGGCTGCATGCTTAAAGATGGAAAAGGTCAAGTGTACCAGAAGGGTGGTTGTGGTGGGTTTGGCAAAGGAAATTTTTCTGAGCTGTTCAGAAGCATAGAAGAATATGAGAAGACACTGGAAGCAAAACAAGCAAATCAAGTTGCGGCCGCGTGA | 0 | 0 | 10 | 6 | 0 | 0 | 0 | 16 | 79 | 100 | non-resistant (non-resistant plants (scores 68-100)) | non-resistant (non-resistant plants (scores 68-100)) | Non-resistant | 88 | 0 | 0 | 6 | 10 | Non-resistant | 100 | Classification and statistics of the grade of pesticide damage: Grade 0 (number of plants) [2, 5]: 0; Classification and statistics of the grade of pesticide damage: Grade 1 (number of plants) [2, 5]: 0; Classification and statistics of the grade of pesticide damage: Grade 2 (number of plants) [2, 5]: 0; Classification and statistics of the grade of pesticide damage: Grade 3 (number of plants) [2, 5]: 16; Resistance evaluation ([3]; mesotrione 52.5 g ai/ha): Non-resistant; Scores ([3]; mesotrione 52.5 g ai/ha): 100; Grade 0 (classification and statistics of the grade of pesticide damage; number of plants) ([3]; mesotrione 52.5 g ai/ha): 0; Grade 1 (classification and statistics of the grade of pesticide damage; number of plants) ([3]; mesotrione 52.5 g ai/ha): 0; Grade 2 (classification and statistics of the grade of pesticide damage; number of plants) ([3]; mesotrione 52.5 g ai/ha): 0; Grade 3 (classification and statistics of the grade of pesticide damage; number of plants) ([3]; mesotrione 52.5 g ai/ha): 16; Resistance evaluation ([3]; mesotrione 105 g ai/ha): Non-resistant; Scores ([3]; mesotrione 105 g ai/ha): 100; Grade 0 (classification and statistics of the grade of pesticide damage; number of plants) ([3]; mesotrione 105 g ai/ha): 0; Grade 1 (classification and statistics of the grade of pesticide damage; number of plants) ([3]; mesotrione 105 g ai/ha): 0; Grade 2 (classification and statistics of the grade of pesticide damage; number of plants) ([3]; mesotrione 105 g ai/ha): 0; Grade 3 (classification and statistics of the grade of pesticide damage; number of plants) ([3]; mesotrione 105 g ai/ha): 16
